Results published in patent US6399759.

Assays:
Assay in all cases: cell-based or functional assay
[1] = biological target: T1, Soli E2 (Solenopsis invicta)
T1 sequence: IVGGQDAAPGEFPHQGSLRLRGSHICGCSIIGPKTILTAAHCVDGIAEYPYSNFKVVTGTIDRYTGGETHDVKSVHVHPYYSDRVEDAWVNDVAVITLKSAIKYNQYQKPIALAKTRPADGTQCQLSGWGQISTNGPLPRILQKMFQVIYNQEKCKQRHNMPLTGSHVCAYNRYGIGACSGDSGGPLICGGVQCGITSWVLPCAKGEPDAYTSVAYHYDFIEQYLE

[2] = biological target: Soli E1 (Solenopsis invicta)
[3] = biological target: Soli C1 (Solenopsis invicta)
Soli C1 (Solenopsis invicta), sequence (Q7SIG2 other isoform, or with tags, fused parts or gaps): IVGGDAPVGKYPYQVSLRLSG

[4] = biological target: Soli C2 (Solenopsis invicta)
Soli C2 (Solenopsis invicta), sequence (main, as listed by the source): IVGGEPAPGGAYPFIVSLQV

Soli E1 (Solenopsis invicta), sequence (main, as listed by the source): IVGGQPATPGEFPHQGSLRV

IC50 [1]: 5.58 nM
IC50 [2]: 4.22 nM
IC50 [3]: 37 nM
IC50 [4]: 1.41 nM
B1: Soy Bean Trypsin Inhibitor I-S (protein, soybean, UniProt P01070 25-205, looked up)
chain: DFVLDNEGNPLENGGTYYILSDITAFGGIRAAPTGNERCPLTVVQSRNELDKGIGTIISSPYRIRFIAEGHPLSLKFDSFAVIMLCVGIPTEWSVVEDLPEGPAVKIGENKDAMDGWFRLERVSDDEFNNYKLVFCPQQAEDDKCGDIGISIDHDDGTRRLVVSKNKPLVVQFQKLDKESL
